Measured values published in patent US20240343806A1 (EUCURE BEIJING BIOPHARMA, published 2024).

Legend:
[1] = molecular target: T1, mouse CTLA4 (mouse, UniProt P09793 36-223); experiment: flow cytometry on CHO-mCTLA4 cells; SSC vs Anti-mouse-IgGFc-FITC
T1 construct: Expressed on transfected CHO cells; also called mCTLA4

[2] = molecular target: T1, mouse CTLA4; experiment: flow cytometry on CHO-mCTLA4 cells; SSC vs Anti-Human-IgGFc-FITC
Procedure: 25 ul CHO cells were added to each well.
After being washed with PBS (1200 rmp, 5 min) twice, 50 ul of anti-human IgG Fc antibody fluorescein isothiocyanate conjugate (IgG Fc-FITC) was added at 1:100 dilution into each well and was incubated at 4° C. for 30 minutes, followed by PBS wash. The signals for FITC were determined by flow cytometry.

T1 sequence (P09793 36-223 S182T limits assumed): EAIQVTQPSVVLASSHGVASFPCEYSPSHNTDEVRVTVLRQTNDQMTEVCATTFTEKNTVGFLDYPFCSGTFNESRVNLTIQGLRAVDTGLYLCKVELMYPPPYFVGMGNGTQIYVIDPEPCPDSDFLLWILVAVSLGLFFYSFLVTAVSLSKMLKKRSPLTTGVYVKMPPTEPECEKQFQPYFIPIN

B1: CT4-20-7E12 (antibody, V domains shown)
VH: EVKLDETGGGLVQPGRPMKLSCVASGFTFSDYWMNWVRQSPEKGLEWVAQIRNKPYNYETHYSDSVKGRFTISRDDSKSSVYLQMNNLRGEDMGIYYCTGTFAYWGQGTLVTVSA
VL: DIQMTQSPTSLSASVGETVTITCGTSENIYGGLNWYQRKQGKSPQLLIYGATNLADGMSSRFSGSGSGRQYSLKISSLHPDDVATYYCQNVLSTPYTFGGGTKLEIK
notes: Mouse monoclonal antibody purified from ascites fluid
[1]
  binding result: no binding (tested: 1 ug/ml)

B2: CT4-03-4G12-mHvKv-IgG1 (antibody, V domains shown)
VH: DVKLVESGGGLVKPGGSLKLSCTASGFTFSSYTMSWVRQTPEKRLEWVATISRGGGYTSYPDSVKGRFTISRDNAKNTLYLQMSSLQSEDTAMYYCARDDYGSSYVHWFAYWGQGTLVTVSA
VL: DIQMTQSPASLSASVGETVTITCRAGENIYSYLAWYQQKQGKSPQLLVYNARTLAEGVPSRFSGSGSGTQFSLKINSLQPEDFGSYYCQHHYGSPRTFGGGTKLEIK
[2]
  binding result: no binding (tested: 1 ug/ml)

B3: CT4-04-13A4-mHvKv-IgG1 (antibody, V domains shown)
VH: QVQLQQSGAELVRPGASVTLSCKASGYTFTDYEMHWVKQTPVHGLEWIGVIDPETGGTAYNQKFKGKATLTADRSSSTAYMELRSLTSEDSAVYYCTRGTTVVGLDYWGQGTTLTVSS
VL: DIQMTQSPASLSASVGESVTITCRASGNIHNYLAWYQQKQGKSPQLLVYKEKTLTDTVPSRFSGSGSGTQFSLKINSLQPEDFGSYYCQHFWSTPWTFGGGTNLEIK
[2]
  binding result: no binding (tested: 1 ug/ml)

B4: CT4-20-6D2 (antibody, V domains shown)
VH: QVQLQQSGAELVRPGASVTLSCKASGYTFTDYEMHWVKQTPVHGLEWIGTIDPETGGTAYNQKFKGKATLTTDKSSSTAYMELRSLTSEDSAVYYCTRRGKYGNYDYVMDYWGQGTSVTVSS
VL: DIQMTQSPASLSASVGETVTITCRASGNIHNYLAWYQQKQGKSPQLLVFNAKTLADGVPSRFSGSGSGTQYSLKINSLQPEDFGNYYCQHFWSTPWTFGGGTKLEIK
notes: as for B1
[1]
  binding result: no binding (tested: 1 ug/ml)
